We go through eleven molecules from paper PMC6610696 (Structure (London, England : 1993), 2019).

Where two headings read alike, the source gives them in different places. Square brackets hold non-standard residues; d marks the D form. Ends that are not written are not given here. pS = N[C@@H](COP(=O)(O)O)C(=O)O

As a reminder, the Kd is a measure of binding affinity in units of concentration. Read a low Kd as higher affinity.

The chains are these.
B9: ScSen1-NIM2-FAM peptide (peptide)
peptide: DDEDDYTPSISD
modifications: also: 5-FAM label: N-terminal per methods, C-terminal per resources table

Common to all, as to experiment: fluorescence polarisation
A general note: Fluorescence polarisation rises when a labelled molecule tumbles more slowly, as on binding a larger partner.

Assay [1] has as its target T1, S. cerevisiae Nrd1 CID (residues 6-151), N-terminal hexa-histidine tag (S. cerevisiae, UniProt P53617 6-151).
T1 sequence (looked up): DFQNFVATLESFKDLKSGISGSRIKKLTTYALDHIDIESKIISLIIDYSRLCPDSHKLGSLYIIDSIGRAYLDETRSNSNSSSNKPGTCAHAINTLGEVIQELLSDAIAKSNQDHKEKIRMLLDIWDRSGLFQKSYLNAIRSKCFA

The target of assay [2] is B9.
The target in assay [3] is T1, S. cerevisiae Nrd1 CID (residues …). This is another data set of the same source.

B1: ScSen1-NIM3 peptide (peptide)
peptide: EAEDPYDLNPHPQ
With B1, in assay [1], the Kd was found to be 38 µM.

B2: ScSen1-NIM2 peptide (peptide)
peptide: DDEDDYTPSISD
For the molecule B2, the binding result in assay [1] is recorded as “binds”.

B3: ScSen1-NIM2-P2060A peptide (peptide)
peptide: DDEDDYTASISD
With B3, the “fold increase in Kd against wild-type NIM2” value in assay [1] was around 20 fold.

B4: ScSen1-NIM2-D2056N peptide (peptide)
peptide: DDENDYTPSISD
Take B4: the “fold increase in Kd against wild-type NIM2” value in assay [1] came to 13 fold.

B5: ScSen1-NIM2-P2060V peptide (peptide)
peptide: DDEDDYTVSISD
In the case of B5, the “fold increase in Kd against wild-type NIM2” value in assay [1] was around 20 fold.

B6: Nrd1 CID D70A mutant (domain or fragment, S. cerevisiae, UniProt P53617 6-151, looked up)
chain: DFQNFVATLESFKDLKSGISGSRIKKLTTYALDHIDIESKIISLIIDYSRLCPDSHKLGSLYIIASIGRAYLDETRSNSNSSSNKPGTCAHAINTLGEVIQELLSDAIAKSNQDHKEKIRMLLDIWDRSGLFQKSYLNAIRSKCFA
B6: in assay [2], the “fold increase in Kd for NIM2 against wild-type CID” value (“fold increase in Kd for NIM2” for short) was determined as 30 fold.

B7: Nrd1 CID Y67A mutant (domain or fragment, S. cerevisiae, UniProt P53617 6-151, looked up)
chain: DFQNFVATLESFKDLKSGISGSRIKKLTTYALDHIDIESKIISLIIDYSRLCPDSHKLGSLAIIDSIGRAYLDETRSNSNSSSNKPGTCAHAINTLGEVIQELLSDAIAKSNQDHKEKIRMLLDIWDRSGLFQKSYLNAIRSKCFA
With B7, the “fold increase in Kd for NIM2” value in assay [2] was 90 fold.

B8: Nrd1 CID D70N mutant (domain or fragment, S. cerevisiae, UniProt P53617 6-151, looked up)
chain: DFQNFVATLESFKDLKSGISGSRIKKLTTYALDHIDIESKIISLIIDYSRLCPDSHKLGSLYIINSIGRAYLDETRSNSNSSSNKPGTCAHAINTLGEVIQELLSDAIAKSNQDHKEKIRMLLDIWDRSGLFQKSYLNAIRSKCFA
On to B8, for which, in assay [2], the “fold increase in Kd for NIM2” value turned out to be 3 fold.

In assay [3], B9 had a dissociation constant Kd of 0.56 µM.

B10: ScSen1-NIM1 peptide (peptide)
peptide: EQEDDYKLPMEYIT
For B10, the Kd in assay [1] worked out at 7.6 µM.

B11: Pol II Ser5P CTD peptide (peptide)
peptide: SPT[pS]PSYSPT[pS]PS
Consider B11, for which the dissociation constant Kd in assay [1] is 216 µM.
